The IC50 is the midpoint of a concentration-inhibition curve. Low readings indicate greater potency in that assay, high ones weaker potency in that assay. For orientation: Km means the concentration of substrate that gives half-maximal velocity. A word on the kcat: it is the number of substrate molecules converted per active site and unit of time at saturation. In general, kcat/Km refers to the second-order rate constant that governs catalysis at low substrate concentration.

This is an account of results in paper PMC9324987, “Comparative Analysis of Catabolic and Anabolic Dehydroshikimate Dehydratases for 3,4-DHBA Production in Escherichia coli” (Microorganisms, 2022).

Data set [1] has as its target T1, Qa-4 (Neurospora crassa, UniProt P07046).
T1 construct: full length, C-terminal His6 (pET22b), codon-optimised synthetic gene, made in E. coli BL21(DE3); primer-encoded N-terminus MPSKLAISS
T1 sequence (P07046 1-359): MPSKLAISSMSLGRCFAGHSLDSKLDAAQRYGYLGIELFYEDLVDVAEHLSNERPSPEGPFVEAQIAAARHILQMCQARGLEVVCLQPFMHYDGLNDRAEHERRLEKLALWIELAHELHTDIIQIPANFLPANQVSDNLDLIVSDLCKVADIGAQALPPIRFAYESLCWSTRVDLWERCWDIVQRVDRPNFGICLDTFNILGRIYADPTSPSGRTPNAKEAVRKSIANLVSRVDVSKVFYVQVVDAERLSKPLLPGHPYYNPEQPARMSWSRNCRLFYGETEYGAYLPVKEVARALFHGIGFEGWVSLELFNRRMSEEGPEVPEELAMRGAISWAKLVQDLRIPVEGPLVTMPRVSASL
Description: […],4-DHBA formation at […] nm, product inhibition. The class given is biochemical.

The target in data set [2] is T2, QsuB (Corynebacterium glutamicum, UniProt Q8NT86).
T2 construct: gene Cgl0422
T2 sequence (Q8NT86 1-618): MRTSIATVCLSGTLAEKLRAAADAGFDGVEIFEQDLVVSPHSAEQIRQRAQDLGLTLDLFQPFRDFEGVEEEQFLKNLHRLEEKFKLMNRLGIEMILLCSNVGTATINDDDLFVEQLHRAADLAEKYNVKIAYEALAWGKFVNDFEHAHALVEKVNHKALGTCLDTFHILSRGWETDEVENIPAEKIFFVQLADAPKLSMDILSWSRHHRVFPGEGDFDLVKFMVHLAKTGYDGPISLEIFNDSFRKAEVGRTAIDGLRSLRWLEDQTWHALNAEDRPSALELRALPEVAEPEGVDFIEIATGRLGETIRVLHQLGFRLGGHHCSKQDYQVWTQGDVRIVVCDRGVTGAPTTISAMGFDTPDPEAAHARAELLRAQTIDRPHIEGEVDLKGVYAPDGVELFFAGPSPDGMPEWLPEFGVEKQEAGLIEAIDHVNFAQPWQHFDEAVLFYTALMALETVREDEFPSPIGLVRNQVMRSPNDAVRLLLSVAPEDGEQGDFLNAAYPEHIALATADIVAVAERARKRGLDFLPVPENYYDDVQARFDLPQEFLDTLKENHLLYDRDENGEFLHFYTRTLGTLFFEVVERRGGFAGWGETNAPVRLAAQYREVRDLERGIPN
The experiment in a line: […],4-DHBA formation at […] nm, product inhibition. The class given is biochemical.

Data set [3] addresses T3, AsbF (Bacillus thuringiensis, UniProt A0A1B1L4G3).
T3 construct: gene CAB88_09740
The experiment in a line: […],4-DHBA formation at […] nm, product inhibition. The class given is biochemical. The following applies: 1 mM DHS, 10 mM Mg2+, 0.1 M Tris/HCl pH 7.5, 20 °C, 150 nM enzyme.

Substrate in data set [4]: O=C(O)C1=CC(=O)[C@@H](O)[C@H](O)C1
The experiment in a line: purified protein. The class given is biochemical, Corynebacterium glutamicum. The following applies: 10 mM metal salt (preferred metal, Co2+), 0.1 M Tris/HCl pH 7.5, 20 °C, 0.1-5 mM DHS.

Substrate in data set [5]: O=C(O)C1=CC(=O)[C@@H](O)[C@H](O)C1
The experiment in a line: purified protein. The class given is biochemical, Neurospora crassa. The following applies: 10 mM Mg2+, 0.1 M Tris/HCl pH 7.5, 20 °C, 0.1-5 mM DHS.

T3 sequence (A0A1B1L4G3 1-280): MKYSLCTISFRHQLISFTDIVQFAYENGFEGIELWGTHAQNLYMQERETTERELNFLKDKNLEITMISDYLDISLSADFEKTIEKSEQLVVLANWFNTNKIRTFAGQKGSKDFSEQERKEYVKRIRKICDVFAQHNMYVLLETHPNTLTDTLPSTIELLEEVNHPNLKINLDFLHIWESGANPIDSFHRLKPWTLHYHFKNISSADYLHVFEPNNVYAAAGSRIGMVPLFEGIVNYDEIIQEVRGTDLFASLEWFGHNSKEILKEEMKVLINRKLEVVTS

With `O=C(O)c1ccc(O)c(O)c1` [3,4-DHBA], the IC50 in data set [1] is ~640 µM; in data set [2], ~350 µM; in data set [3], ~80 µM.

B1: QsuB (Corynebacterium glutamicum ATCC 13032) (protein)
chain: MRTSIATVCLSGTLAEKLRAAADAGFDGVEIFEQDLVVSPHSAEQIRQRAQDLGLTLDLFQPFRDFEGVEEEQFLKNLHRLEEKFKLMNRLGIEMILLCSNVGTATINDDDLFVEQLHRAADLAEKYNVKIAYEALAWGKFVNDFEHAHALVEKVNHKALGTCLDTFHILSRGWETDEVENIPAEKIFFVQLADAPKLSMDILSWSRHHRVFPGEGDFDLVKFMVHLAKTGYDGPISLEIFNDSFRKAEVGRTAIDGLRSLRWLEDQTWHALNAEDRPSALELRALPEVAEPEGVDFIEIATGRLGETIRVLHQLGFRLGGHHCSKQDYQVWTQGDVRIVVCDRGVTGAPTTISAMGFDTPDPEAAHARAELLRAQTIDRPHIEGEVDLKGVYAPDGVELFFAGPSPDGMPEWLPEFGVEKQEAGLIEAIDHVNFAQPWQHFDEAVLFYTALMALETVREDEFPSPIGLVRNQVMRSPNDAVRLLLSVAPEDGEQGDFLNAAYPEHIALATADIVAVAERARKRGLDFLPVPENYYDDVQARFDLPQEFLDTLKENHLLYDRDENGEFLHFYTRTLGTLFFEVVERRGGFAGWGETNAPVRLAAQYREVRDLERGIPN
As to B1, in data set [4], the Km amounted to 961 ± 77 µM, the catalytic constant (kcat) is 60.8 ± 0.9 s⁻¹ and the kcat/Km is 63300 ± 11700 M⁻¹ s⁻¹.

B2: Qa-4 (Neurospora crassa OR74A) (protein)
chain: MPSKLAISSMSLGRCFAGHSLDSKLDAAQRYGYLGIELFYEDLVDVAEHLSNERPSPEGPFVEAQIAAARHILQMCQARGLEVVCLQPFMHYDGLNDRAEHERRLEKLALWIELAHELHTDIIQIPANFLPANQVSDNLDLIVSDLCKVADIGAQALPPIRFAYESLCWSTRVDLWERCWDIVQRVDRPNFGICLDTFNILGRIYADPTSPSGRTPNAKEAVRKSIANLVSRVDVSKVFYVQVVDAERLSKPLLPGHPYYNPEQPARMSWSRNCRLFYGETEYGAYLPVKEVARALFHGIGFEGWVSLELFNRRMSEEGPEVPEELAMRGAISWAKLVQDLRIPVEGPLVTMPRVSASL
notes: full length, C-terminal His6 (pET22b), codon-optimised synthetic gene, made in E. coli BL21(DE3); primer-encoded N-terminus MPSKLAISS
In the case of B2, in data set [5], the Km is recorded as 598 ± 16 µM, the kcat was 218.6 ± 1.1 s⁻¹ and the kcat/Km turned out to be 366000 ± 68800 M⁻¹ s⁻¹.
